Key:
[1] = molecular target: 6xHis-tagged full-length SNX27 (human, UniProt Q96L92 1-541); experiment: pull-down
[2] = molecular target: untagged SNX27 FERM domain (human, UniProt Q96L92 273-525); experiment: ITC
[3] = molecular target: untagged full-length SNX27 (human, UniProt Q96L92 1-541); experiment: ITC

Row | Binder | binding result [1] | also measured
1 | DTEGEDIFTGAAVVSKHQSPK (domain or fragment, human, UniProt Q13596 40-60, looked up) [GST-SNX1 residues 40-60] | binds | –
2 | DTEGEDIFTGAAVVSKHQSPKITTSLLPINNGSKENGIHEE (domain or fragment, human, UniProt Q13596 40-80, looked up) [GST-SNX1 residues 40-80] | binds | –
3 | GST-SNX1 (residues 1-142) (domain or fragment, human, UniProt Q13596 1-142, looked up) MASGGGGCSASERLPPPFPGLEPESEGAAGGSEPEAGDSDTEGEDIFTGAAVVSKHQSPKITTSLLPINNGSKENGIHEEQDQEPQDLFADATVELSLDSTQNNQKKVLAKTLISLPPQEATNSSKPQPTYEELEEEEQEDQ | – | Kd [2]: 12 µM; Kd [3]: 10 to 12 µM
4 | GST-SNX1 (residues 1-90) (domain or fragment, human, UniProt Q13596 1-90, looked up) MASGGGGCSASERLPPPFPGLEPESEGAAGGSEPEAGDSDTEGEDIFTGAAVVSKHQSPKITTSLLPINNGSKENGIHEEQDQEPQDLFA | binds | –
5 | GST-SNX1 residues 1-80 (domain or fragment, human, UniProt Q13596 1-80, looked up) MASGGGGCSASERLPPPFPGLEPESEGAAGGSEPEAGDSDTEGEDIFTGAAVVSKHQSPKITTSLLPINNGSKENGIHEE | binds | –
6 | DTEGEDIFTGA [SNX1 peptide with the first DxF motif (residues 40-50, DIF)] | – | fold weaker than the SNX1 N-terminus [2]: ~2 fold; fold weaker than the SNX1 N-terminus [3]: ~2 fold
7 | EQDQEPQDLFA [SNX1 peptide with the second DxF motif (residues 80-90, DLF)] | – | binding result [2]: binds; binding result [3]: binds

More lines, main results first:

Row | binding result [1] | Binder | also measured
8 | binds | GST-SNX1 residues 1-70 (domain or fragment, human, UniProt Q13596 1-70, looked up) MASGGGGCSASERLPPPFPGLEPESEGAAGGSEPEAGDSDTEGEDIFTGAAVVSKHQSPKITTSLLPINN | –
9 | binds | GST-SNX2_N-terminal (1-139) (domain or fragment, human, UniProt O60749 1-139, looked up) MAAEREPPPLGDGKPTDFEDLEDGEDLFTSTVSTLESSPSSPEPASLPAEDISANSNGPKPTEVVLDDDREDLFAEATEEVSLDSPEREPILSSEPSPAVTPVTPTTLIAPRIESKSMSAPVIFDRSREEIEEEANGDI | –
10 | binds | DTEGEDIFTGAAVVSKHQSPKITTSLLPINN (domain or fragment, human, UniProt Q13596 40-70, looked up) [GST-SNX1 residues 40-70] | –
11 | binds | GST-SNX1 (residues 40-100) (domain or fragment, human, UniProt Q13596 40-100, looked up) DTEGEDIFTGAAVVSKHQSPKITTSLLPINNGSKENGIHEEQDQEPQDLFADATVELSLDS | –
12 | binds | GST-SNX1 (residues 40-90) (domain or fragment, human, UniProt Q13596 40-90, looked up) DTEGEDIFTGAAVVSKHQSPKITTSLLPINNGSKENGIHEEQDQEPQDLFA | –
13 | binds | GST-SNX1 residues 1-60 (domain or fragment, human, UniProt Q13596 1-60, looked up) MASGGGGCSASERLPPPFPGLEPESEGAAGGSEPEAGDSDTEGEDIFTGAAVVSKHQSPK | –
